# According to patent US8673311B2 (priority 2009, dated 2014):
# Test system: PY79 spores
# Type: physicochemical, B. subtilis
substance,measurement,value
listeriolysin from Listeria monocytogenes: immunogen shown to bind to the spore,binding of other immunogens to the spore,can bind to the spore in a pH-dependant manner
